For test [1], the target named is T1, RNA polymerase core enzyme (subunits α2ββ'ω) (UniProt P0A7Z4 1-329; P0A8V2 1-1342; P0A8T7 1-1407; P0A800 1-91). In words: BLI; Octet RED96, 303 K; 0.5 μM Biotin-DinB immobilised on streptavidin biosensors, blocked with biocytin; RNAP core as analyte in 2-fold serial dilution; 50 mM KPi pH 6.5, 150 mM NaCl, 25 mM MgCl2, 1 mM TCEP, 0.5% BSA; double referencing. The note with it: both partners purified. (Biolayer interferometry detects binding as a change in optical thickness at a sensor tip.)

The target in test [2] is T1, RNA polymerase core enzyme (subunits …). The test can be described thus: BLI; Octet RED96, 303 K; 0.5 μM Biotin-DinBΔPAD immobilised on streptavidin biosensors, blocked with biocytin; RNAP core as analyte in 2-fold serial dilution; 50 mM KPi pH 6.5, 50 mM NaCl, 25 mM MgCl2, 1 mM TCEP, 0.25% BSA; double referencing. The conditions noted are these: both partners purified.

B1: DNA polymerase IV (DinB), DinB^1-351 (enzyme, E. coli, UniProt Q47155 1-351, looked up)
chain: MRKIIHVDMDCFFAAVEMRDNPALRDIPIAIGGSRERRGVISTANYPARKFGVRSAMPTGMALKLCPHLTLLPGRFDAYKEASNHIREIFSRYTSRIEPLSLDEAYLDVTDSVHCHGSATLIAQEIRQTIFNELQLTASAGVAPVKFLAKIASDMNKPNGQFVITPAEVPAFLQTLPLAKIPGVGKVSAAKLEAMGLRTCGDVQKCDLVMLLKRFGKFGRILWERSQGIDERDVNSERLRKSVGVERTMAEDIHHWSECEAIIERLYPELERRLAKVKPDLLIARQGVKLKFDDFQQTTQEHVWPRLNKADLIATARKTWDERRGGRGVRLVGLHVTLLDPQMERQLVLGL
modifications: biotin (EZ-Link NHS-PEG4-Biotin, conditions favouring the amino-terminal α-amino group) in the BLI assay; isotope-labelled ([U-2H,15N] or MALVI^proS methyl-labelled) in the NMR titrations
notes: E. coli DNA polymerase IV (DinB), residues 1-351, from pET28b(+)-DinB (Genscript); No removal of the His6 tag is described for DinB and DinBΔPAD; also called full-length DinB; MALVI^proS-DinB; source: E. coli BL21 (λDE3), purified (Ni2+-Histrap, heparin, SEC)
B1 gave a Kd in test [1] of 6.4 ± 0.07 nM.

B2: DinBΔPAD (DinB^1-230) (domain or fragment, E. coli, UniProt Q47155 1-230, looked up)
chain: MRKIIHVDMDCFFAAVEMRDNPALRDIPIAIGGSRERRGVISTANYPARKFGVRSAMPTGMALKLCPHLTLLPGRFDAYKEASNHIREIFSRYTSRIEPLSLDEAYLDVTDSVHCHGSATLIAQEIRQTIFNELQLTASAGVAPVKFLAKIASDMNKPNGQFVITPAEVPAFLQTLPLAKIPGVGKVSAAKLEAMGLRTCGDVQKCDLVMLLKRFGKFGRILWERSQGID
modifications: biotin (EZ-Link NHS-PEG4-Biotin, conditions favouring the amino-terminal α-amino group) in the BLI assay; [U-2H,15N]-labelled in the NMR titration
notes: E. coli DNA polymerase IV (DinB), residues 1-230 (Fingers, Palm, Thumb); stop codon introduced at amino acid 231; also called Biotin-DinBΔPAD; source: E. coli BL21 (λDE3), purified (Ni2+-Histrap, heparin, SEC)
In turn, B2 gave a Kd in test [2] of 5.9 ± 0.05 nM.

What is called Kd is the free concentration of one partner at which half of the binding sites on the other are occupied at equilibrium, for simple one-to-one binding. Low readings indicate higher affinity, high ones lower affinity.

For the origin of these results see PMC10359629, “Thumb-domain dynamics modulate the functional repertoire of DNA-Polymerase IV (DinB)” (Nucleic Acids Research, 2022).
